Test results taken from patent US20220220158A1.

Experiments:
[1] = biological target: antibodies of human serum sample 16CDV61278; assay: DAGS blocking; signal antigen m1 SS-ZIKA-NS1-wing
[2] = biological target: antibodies of human serum sample 16CDV61275; assay: DAGS blocking; signal antigen m1 SS-ZIKA-NS1-wing
[3] = biological target: antibodies of human serum sample 16CDV61197; assay: DAGS blocking; signal antigen m1 SS-ZIKA-NS1-wing
[4] = biological target: antibodies of human serum sample 16CDV61278; assay: DAGS blocking; signal antigen m3 S-ZIKA-NS1-ß-ladder
[5] = biological target: antibodies of human serum sample 16CDV61275; assay: as above
[6] = biological target: antibodies of human serum sample 16CDV61197; assay: as above

B1: Dengue virus type 4 NS1 full length aa 1-352 (protein)
chain: DTGCAVSWSGKELKCGSGIFVIDNVHTWTEQYKFQPESPARLASAILNAHEDGVCGIRSTTRLENIMWKQITNELNYVLWEGGHDLTVVAGDVKGVLSKGKRALAPPVNDLKYSWKTWGKAKIFTPEAKNSTFLIDGPDTSECPNERRAWNFLEVEDYGFGMFTTNIWMKFREGSSEVCDHRLMSAAIKDQKAVHADMGYWIESSKNQTWQIEKASLIEVKTCLWPKTHTLWSNGVLESQMLIPKAYAGPFSQHNYRQGYATQTVGPWHLGKLEIDFGECPGTTVTIQEDCDHRGPSLRTTTASGKLVTQWCCRSCTMPPLRFLGEDGCWYGMEIRPLSEKEENMVKSQVSA
Question: How did the Blocking [%] [1] turn out when B1 was run?
Answer: The Blocking [%] was 4.5%.

Question: What about the Blocking [%] normalized to Zika [1] of the same binder?
Answer: The Blocking [%] normalized to Zika was 4.9%.

Question: And the counts [1]?
Answer: Its counts is 2880 counts.

Question: What about the Blocking [%] [2] of the same binder?
Answer: The Blocking [%] was 2.48%.

Question: And the Blocking [%] normalized to Zika [2]?
Answer: Its Blocking [%] normalized to Zika is 3.3%.

Question: What about the counts [2] of the same binder?
Answer: Its counts is 3040 counts.

Question: And the Blocking [%] [3]?
Answer: Its Blocking [%] is 0.891%.

Question: And the Blocking [%] normalized to Zika [3]?
Answer: The Blocking [%] normalized to Zika was 1.2%.

Question: What about the counts [3] of the same binder?
Answer: Its counts is 2900 counts.

Question: And the Blocking [%] [4]?
Answer: Its Blocking [%] is 2.6%.

Question: What about the Blocking [%] normalized to Zika [4] of the same binder?
Answer: Its Blocking [%] normalized to Zika is 3.7%.

Question: What about the counts [4] of the same binder?
Answer: The counts was 2830 counts.

Question: What about the Blocking [%] [5] of the same binder?
Answer: The Blocking [%] was 25.1%.

Question: And the Blocking [%] normalized to Zika [5]?
Answer: The Blocking [%] normalized to Zika was 27.3%.

Question: And the counts [5]?
Answer: The counts was 2730 counts.

Question: What about the Blocking [%] [6] of the same binder?
Answer: Its Blocking [%] is 31.6%.

Question: What about the Blocking [%] normalized to Zika [6] of the same binder?
Answer: The Blocking [%] normalized to Zika was 50.3%.

Question: And the counts [6]?
Answer: Its counts is 2320 counts.
